Measurements as given in PMC6033465.

B1: human lysozyme c (enzyme)
chain: KVFERCELARTLKRLGMDGYRGISLANWMCLAKWESGYNTRATNYNAGDRSTDYGIFQINSRYWCNDGKTPGAVNACHLSCSALLQDNIADAVACAKRVVRDPQGIRAWVAWRNRCQNRDVRQYVQGCGV

Columns and labels:
human lysozyme c (human) = human lysozyme c (human) (UniProt P61626)
[1] = molecular target: recombinant wild type SliC (surface-exposed lysozyme inhibitor of c-type lysozyme, NGO1063) of N. gonorrhoeae FA1090 (N. gonorrhoeae FA1090); experiment: BLI; biotinylated rSliC (20 ug/mL, 10 min) immobilised on streptavidin sensors, increasing concentrations of HL in solution; Kinetic Buffer (20 mM HEPES pH 8, 15 mM NaCl, 0.002 Tween 20, 0.1 mg/mL BSA); association and dissociation 600 s; 2:1 (Heterogeneous Ligand) model; three biological …; OctetRed 96

Molecule | IC50 of SliC against the lytic activity of HL towards M. lysodeikticus peptidoglycan (fluorescein-labeled cell walls; 2.5 μM HL, 0-10 μM SliC) (human lysozyme c (human)) [µM] | Kd [1] [µM]
recombinant wild type SliC (surface-exposed lysozyme inhibitor of c-type lysozyme, NGO1063) of N. gonorrhoeae FA1090 (natural protein) | 1.85 | –
B1 | – | 9.2
